The text below walks through data of patent publication US20230406921A1 (MABWELL SHANGHAI BIOSCIENCE, published 2023).

Residue numbers refer to the chain shown, from its start.

The labels stand for the following.
B1: anti-human CD47/PD-L1 bispecific antibody 2MW1531-m4 (bispecific antibody)
heavy 1: EVQLVQSGAEVKKPGASVKVSCKASGYKFTNYVMSWVRQAPGQRLEWMGYINPYNDAIKYNEKFTGRVTITRDTSASTAYMELSSLRSEDTAVYYCAREGDFYANYGRLGFAYWGQGTLVTVSSASTKGPSVFPLAPCSRSTSESTAALGCLVKDYFPEPVTVSWNSGALTSGVHTFPAVLQSSGLYSLSSVVTVPSSSLGTQTYTCNVDHKPSNTKVDKRVESKYGPPCPPCPAPEFLGGPSVFLFPPKPKDTLMISRTPEVTCVVVDVSQEDPEVQFNWYVDGVEVHNAKTKPREEQYNSTYRVVSVLTVLHQDWLNGKEYKCKVSNKGLPSSIEKTISKAKGQPREPQVYTLPPSQKEMTKNQVSLTCLVKGFYPSDIAVEWESNGQPENNYKTTPPVLDSDGSFFLYSKLTVDKSRWQEGNVFSCSVMHEALHNRYTQKSLSLSLGK
heavy 2: EVQLVQSGAEVKKPGATVKISCKVSGFNIKDIYMHWVQQAPGKGLEWMGRIDPANANTKYDPKFQDRVTITADTSTNTAYMELSSLRSEDTAVYYCASGQLGPLGFDYWGQGTTVTVSSASTKGPSVFPLAPCSRSTSESTAALGCLVKDYFPEPVTVSWNSGALTSGVHTFPAVLQSSGLYSLSSVVTVPSSSLGTQTYTCNVDHKPSNTKVDKRVESKYGPPCPPCPAPEFLGGPSVFLFPPKPKDTLMISRTPEVTCVVVDVSQEDPEVQFNWYVDGVEVHNAKTKPREEQYNSTYRVVSVLTVLHQDWLNGKEYKCKVSNKGLPSSIEKTISKAKGQPREPQVYTLPPSQEEMTKNQVSLTCLVKGFYPSDIAVEWESNGQPENNYKTTPPVLDSDGSFFLYSKLTVDKSRWQEGNVFSCSVMHEALHNHYTQESLSLSLGK
VL: DIQMTQSPSSLSASVGDRVTITCRASQDITNYLNWYQQKPGKAPKLLLYYTSRLHSGVPSRFSGSGSGTDYTLTISSLQPEDFATYFCQQGAGRPYTFGGGTKVEIKRTVAAPSVFIFPPSDEQLKSGTASVVCLLNNFYPREAKVQWKVDNALQSGNSQESVTEQDSKDSTYSLSSTLTLSKADYEKHKVYACEVTHQGLSSPVTKSFNRGEC
notes: Knobs-into-holes with a common light chain
B2: anti-human CD47/PD-L1 bispecific antibody 2MW1531-m3 (bispecific antibody)
heavy 1: B1 heavy 1
heavy 2: B1 heavy 2
VL: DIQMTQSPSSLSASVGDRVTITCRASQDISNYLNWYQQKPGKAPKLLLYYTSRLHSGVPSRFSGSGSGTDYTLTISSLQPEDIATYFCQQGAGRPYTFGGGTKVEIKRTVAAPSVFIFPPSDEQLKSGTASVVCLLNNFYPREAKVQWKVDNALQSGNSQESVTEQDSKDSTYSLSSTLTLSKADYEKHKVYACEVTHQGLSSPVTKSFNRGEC
notes: as for B1
B3: anti-human CD47/PD-L1 bispecific antibody 2MW1531-m10 (bispecific antibody)
heavy 1: B1 heavy 1
heavy 2: B1 heavy 2
VL: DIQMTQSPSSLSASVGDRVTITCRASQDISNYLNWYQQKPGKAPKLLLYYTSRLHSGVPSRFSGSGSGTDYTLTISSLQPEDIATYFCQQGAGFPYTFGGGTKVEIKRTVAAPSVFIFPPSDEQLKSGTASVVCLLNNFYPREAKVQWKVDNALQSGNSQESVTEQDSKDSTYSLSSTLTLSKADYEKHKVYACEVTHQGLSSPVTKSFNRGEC
notes: as for B1
B4: anti-human CD47/PD-L1 bispecific antibody 2MW1531-m6 (bispecific antibody)
heavy 1: B1 heavy 1
heavy 2: B1 heavy 2
VL: B1 VL with T30S, G93T
notes: as for B1
B5: anti-human CD47/PD-L1 bispecific antibody 2MW1531-m11 (bispecific antibody)
heavy 1: B1 heavy 1
heavy 2: B1 heavy 2
VL: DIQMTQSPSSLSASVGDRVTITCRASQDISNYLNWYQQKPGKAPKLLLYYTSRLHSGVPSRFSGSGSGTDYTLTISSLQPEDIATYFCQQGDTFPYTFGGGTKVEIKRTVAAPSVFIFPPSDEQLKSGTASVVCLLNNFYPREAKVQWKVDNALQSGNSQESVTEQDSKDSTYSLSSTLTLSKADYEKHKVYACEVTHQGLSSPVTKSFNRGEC
notes: as for B1
B6: anti-human CD47/PD-L1 bispecific antibody 2MW1531-m8 (bispecific antibody)
heavy 1: B1 heavy 1
heavy 2: B1 heavy 2
VL: B1 VL with T30S, Y96R
notes: as for B1
B7: anti-human CD47/PD-L1 bispecific antibody 2MW1531-m9 (bispecific antibody, human IgG4 S228P, kappa)
heavy 1: B1 heavy 1
heavy 2: B1 heavy 2
VL: B1 VL with T30S, A92D, G93T, R94F
notes: as for B1
B8: anti-human CD47/PD-L1 bispecific antibody 2MW1531-m5 (bispecific antibody)
heavy 1: B1 heavy 1
heavy 2: B1 heavy 2
VL: B1 VL with T30S, A92D
notes: as for B1
B9: h140Hm13/h140L (antibody, V domains shown)
VH: EVQLVQSGAEVKKPGASVKVSCKASGYKFTNYVMSWVRQAPGQRLEWMGYINPYNDAIKYNEKFTGRVTITRDTSASTAYMELSSLRSEDTAVYYCAREGDFYANYGRLGFAYWGQGTLVTVSS
VL: DIQMTQSPSSLSASVGDRVTITCRASQDITNYLNWYQQKPGKAPKLLIYYTSRLHSGVPSRFSGSGSGTDYTFTISSLQPEDIATYFCQQGDTFPRTFGGGTKVEIK
notes: Heavy chain mutant 140Hm13 with the unmutated light chain of hz140
B10: h140Hm13/h140Lm6 (antibody, V domains shown)
VH: B9 VH
VL: B9 VL with T93G
B11: h140Hm13/h140Lm5 (antibody, V domains shown)
VH: B9 VH
VL: B9 VL with D92A
B12: h140Hm13/h140Lm2 (antibody, V domains shown)
VH: B9 VH
VL: B9 VL with I48L
B13: h140Hm13/h140Lm9 (antibody, V domains shown)
VH: B9 VH
VL: B9 VL with D92A, T93G, F94R
notes: also called h140Lmut9; mut9
B14: h140Hm13/h140Lm3 (antibody, V domains shown)
VH: B9 VH
VL: B9 VL with F73L
B15: h140Hm13/h140Lm4 (antibody, V domains shown)
VH: B9 VH
VL: B9 VL with I83F
B16: h140Hm13/h140Lm1 (antibody, V domains shown)
VH: B9 VH
VL: B9 VL with T30S
notes: also called h140Lml
B17: h140Hm13/h140Lm7 (antibody, V domains shown)
VH: B9 VH
VL: B9 VL with F94R
B18: 1F8 (antibody, human IgG4, V domains shown)
VH: KVQLVESGGGLVKPGGSLRLSCAASGFTFSNAWMNWVRQAPGKGLEWVGRIKRKTDGETTDYAAPVKGRFSISRDDSKNTLYLQMNSLKTEDTAVYYCAGSNRAFDIWGQGTMVTVSA
VL: DIVMTQSPDSLAVSLGERATINCKSSQSVLYSSNNRNYLAWYQQKPGQPPKLLINQASTRASGVPDRFSGSGSGTEFTLIISSLHAEDVAIYYCQQYYTPPLAFGGGTKLEIK
notes: also called anti-CD47 antibody 1F8; control anti-CD47 monoclonal antibody 1F8
B19: anti-PD-L1 monoclonal antibody (hz182) (antibody, human IgG4 S228P, kappa, V domains shown)
VH: QLVQSGAEVKKPGATVKISCKVSGFNIKDIYMHWVQQAPGKGLEWMGRIDPANANTKYDPKFQDRVTITADTSTNTAYMELSSLRSEDTAVYYCASGQLGPLGFDYWGQGTTVTVSS
VL: DIQMTQSPSSLSASVGDRVTITCRASQDISNYLNWYQQKPGKAPKLLLYYTSRLHSGVPSRFSGSGSGTDYTLTISSLQPEDFATYFCQQGAGRPYTFGGGTKVEIKR
notes: also called humanized anti-human PD-L1 antibody; anti-PD-L sidearm monoclonal antibody

PD-L1, sequence (Q9NZQ7 19-239 limits assumed): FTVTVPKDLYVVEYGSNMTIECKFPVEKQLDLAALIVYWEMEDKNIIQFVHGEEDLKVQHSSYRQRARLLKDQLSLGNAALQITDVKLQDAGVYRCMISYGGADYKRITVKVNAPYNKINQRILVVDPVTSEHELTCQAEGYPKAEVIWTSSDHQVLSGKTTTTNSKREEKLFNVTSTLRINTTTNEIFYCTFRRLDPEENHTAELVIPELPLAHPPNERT
T4 sequence (Q9NZQ7 19-290): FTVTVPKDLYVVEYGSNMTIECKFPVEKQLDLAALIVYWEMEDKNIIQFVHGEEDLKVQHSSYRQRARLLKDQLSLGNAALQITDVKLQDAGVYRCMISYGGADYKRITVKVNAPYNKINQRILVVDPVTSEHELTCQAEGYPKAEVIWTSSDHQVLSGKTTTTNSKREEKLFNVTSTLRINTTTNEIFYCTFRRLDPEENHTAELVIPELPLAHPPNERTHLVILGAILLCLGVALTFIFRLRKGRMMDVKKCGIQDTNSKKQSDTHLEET

One experiment addresses T1, recombinant antigen of the extracellular region of CD47 (Sino Biological, Cat: 12283-H08H) (human, UniProt Q08722 19-139).
T1 construct: extracellular domain; also called recombinant CD47 extracellular region; CD47 recombinant protein
Kind of experiment: Fortebio BLI. (In general: In BLI a coated tip is dipped into the sample, and binding shifts an interference pattern.)
In the case of B1, the Kd (as a rule, the constant that tells how readily two partners part at equilibrium) was found to be 26.5 nM; the koff (in general, a measure of how fast the partners let go of each other) worked out at 0.00321 s⁻¹; the kon (as a rule, the rate constant with which the complex forms) is 121000 M⁻¹ s⁻¹.

With B2, the Kd came to 65.7 nM, the koff was 0.00769 s⁻¹ and the kon was determined as 117000 M⁻¹ s⁻¹.

Consider B3, for which the Kd was 54.8 nM, the koff was 0.00547 s⁻¹ and the kon amounted to 99800 M⁻¹ s⁻¹.

For the molecule B4, the Kd is 84.5 nM, the koff was determined as 0.00879 s⁻¹ and the kon was 104000 M⁻¹ s⁻¹.

As for B5, the Kd was 74.9 nM, the koff amounted to 0.00907 s⁻¹ and the kon came out at 121000 M⁻¹ s⁻¹.

Regarding B6, the Kd was 107 nM, the koff is 0.00937 s⁻¹ and the kon is 87900 M⁻¹ s⁻¹.

Consider B7, for which the Kd amounted to 79.6 nM, the koff amounted to 0.00947 s⁻¹ and the kon turned out to be 119000 M⁻¹ s⁻¹.

Consider B8, for which the Kd came out at 10.8 nM, the koff worked out at 0.00101 s⁻¹ and the kon came out at 93600 M⁻¹ s⁻¹.

The next experiment concerns the target PD-L1 (human, UniProt Q9NZQ7 19-239, limits assumed). Kind of experiment: Fortebio BLI.
In turn, B1 yielded a Kd of 3.78 nM, a koff of 0.000707 s⁻¹ and a kon of 187000 M⁻¹ s⁻¹.

B2 had a Kd of 1.02 nM, a koff of 0.000163 s⁻¹ and a kon of 159000 M⁻¹ s⁻¹.

In the case of B3, binding was characterised by a dissociation constant (Kd) of 1.28 nM, the koff is 0.000369 s⁻¹ and the kon was determined as 288000 M⁻¹ s⁻¹.

B4 registered a Kd of 1.73 nM, a koff of 0.000496 s⁻¹ and a kon of 287000 M⁻¹ s⁻¹.

Molecule B5 showed a dissociation constant Kd of 0.784 nM, a koff of 0.000237 s⁻¹ and a kon of 302000 M⁻¹ s⁻¹.

As for B6, the Kd was 0.546 nM, the koff worked out at 0.000134 s⁻¹ and the kon was found to be 245000 M⁻¹ s⁻¹.

Turning to B7, binding was put at a Kd of 0.706 nM, the off-rate (koff) worked out at 0.000272 s⁻¹ and the kon stood at 385000 M⁻¹ s⁻¹.

As for B8, the Kd turned out to be 1.02 nM, the koff stood at 0.000357 s⁻¹ and the kon amounted to 347000 M⁻¹ s⁻¹.

For a further experiment, the target named is T2, CD47 on the surface of human red blood cells (human, UniProt Q08722 19-323).
T2 construct: whole, on cells; Same protein as m3, on red blood cells; also called hRBC; RBC
Briefly: FACS, hRBC, 500 nM. Background: In flow cytometry, cells or beads pass a laser one at a time.
Experimental: (§1) The difference between the binding of the mutant to CD47 on the surface of tumor cells and CD47 on the surface of red blood cells was evaluated.
In the case of B9, the “FACS (MFI)” value is 27400 MFI.

As to B10, the “FACS (MFI)” value amounted to 27200 MFI.

Consider B11, for which the “FACS (MFI)” value came out at 27300 MFI.

As to B12, the “FACS (MFI)” value was determined as 26100 MFI.

With B13, the “FACS (MFI)” value was determined as 17700 MFI.

On to B14, for which the “FACS (MFI)” value was 30600 MFI.

Take B15: the “FACS (MFI)” value came to 24200 MFI.

As to B16, the “FACS (MFI)” value is 28700 MFI.

Turning to B17, the “FACS (MFI)” value is 16700 MFI.

The target of a further experiment is T3, CD47 on the surface of tumor cells (human, UniProt Q08722 19-323).
T3 construct: whole, on cells; Same protein as m4; also called CD47 antigen on the surface of U937 and CCRF cells; SKOV-3
Briefly: flow cytometry on A431 cells.
Take B18: the EC50 (read off the curve) (in general, the concentration giving half of the maximal effect) lay within 2 to 3 nM.

A further experiment addresses T4, human PD-L1 on cells (human, UniProt Q9NZQ7 19-290).
T4 construct: whole, on cells; also called MC38-hPD-L1/hCD47 cells; A431 cells
Kind of experiment: flow cytometry on A431 cells.
B19: the “EC50 (read off the curve)” value is approximately 0.1 nM.

For a further experiment, the target named is T3, CD47 on the surface of tumor cells. Briefly: FACS, tumor cells, 1 nM.
Experimental: as §1
Turning to B9, the “FACS (MFI)” value worked out at 102000 MFI.

As for B13, the “FACS (MFI)” value stood at 34600 MFI.

Take B17: the “FACS (MFI)” value is 40200 MFI.

A further experiment concerns the target T2, CD47 on the surface of human red blood …. Kind of experiment: FACS, human red blood cells, antibody 1000 nM.
Experimental: (§2) In the experiment of analyzing the binding to human red blood cells, the antibody was used at a concentration of 1000 nM; and in the experiment of analyzing the binding to tumor cells, the antibody was used at a concentration of 100 nM.
Take B1: the “Binding to human red blood cells (MFI)” value amounted to 903 MFI.

As for B2, the “Binding to human red blood cells (MFI)” value was 955 MFI.

With B3, the “Binding to human red blood cells (MFI)” value amounted to 890 MFI.

In the case of B4, the “Binding to human red blood cells (MFI)” value turned out to be 912 MFI.

Turning to B5, the “Binding to human red blood cells (MFI)” value amounted to 878 MFI.

Take B6: the “Binding to human red blood cells (MFI)” value came out at 763 MFI.

As to B7, the “Binding to human red blood cells (MFI)” value came out at 781 MFI.

Take B8: the “Binding to human red blood cells (MFI)” value amounted to 807 MFI.

The target in another experiment is T3, CD47 on the surface of tumor cells. Briefly: FACS, SKOV-3 tumor cells (no PD-L1), antibody 100 nM.
Experimental: as §2
On to B1, for which the “Binding to tumor cells (MFI)” value stood at 31100 MFI.

Turning to B2, the “Binding to tumor cells (MFI)” value was 34900 MFI.

For the molecule B3, the “Binding to tumor cells (MFI)” value is 26200 MFI.

In the case of B4, the “Binding to tumor cells (MFI)” value was 24700 MFI.

For the molecule B5, the “Binding to tumor cells (MFI)” value is 28900 MFI.

For B6, the “Binding to tumor cells (MFI)” value amounted to 28200 MFI.

Consider B7, for which the “Binding to tumor cells (MFI)” value came to 37800 MFI.

For the molecule B8, the “Binding to tumor cells (MFI)” value was 30900 MFI.
